Consider two molecules from US20240263208A1, “CYTOCHROME P450 ENZYME” (HYPHA DISCOVERY LTD., priority 2021, published 2024).

Holding throughout (assay type): biochemical
Data set [1] can be described thus: Oxidase activity testing against vanoxerine. Conditions: substrate Vanoxerine; Batch 1. The protocol: (§1) Lyophilised material of recombinant P450, ferredoxin and ferredoxin reductase proteins was made as described in Example 4 and reconstituted in high purity water to the original volume. Biocatalysis was performed with shaking incubation at 27° C. in the following conditions: 100 mM potassium phosphate pH 8.0, 5 mM MgCl2 (both present in the reconstituted enzyme preparation) and 0.1 mg/ml substrate compound such as ambroxide (Sigma-Aldrich, UK), carbamazepine (Sigma-Aldrich, UK), diclofenac (Sigma-Aldrich, UK), tivantinib (MedChemtronica, Sweden), clarithromycin (Tokyo Chemical Industry, Japan), sclareol (Sigma-Aldrich, UK), celecoxib (LC Laboratories, USA), buparvaquone (Sigma-Aldrich, UK), BIRB796 (MedChemExpress, USA), vanoxerine (CiVentiChem, USA), valsartan (Tokyo Chemical Industry, Japan), ruxolitinib (LC Laboratories, USA), perindopril (Selleckchem, USA), solifenacin (Key Organics, UK), 7-ethoxycoumarin (Tokyo Chemical Industry, Japan), tofacitinib (LC Laboratories, USA), ebastine (Key Organics, UK), efavirenz (Key Organics, UK), propanalol (Sigma-Aldrich, UK) and tolbutamide (Key Organics, UK).
(§2) Concentrations of P450, ferredoxin and ferredoxin reductase were as extracted (Example 4). Reactions were initiated by addition of 10× stock of cofactor mixture (50 mM G6P, 10 mM NADP+, 10 UN/ml G6PDH) to provide a final volume of e.g., 10 μl to 90 μl for 100 μl total reaction volumes. After 16-20 hours, reactions were extracted with an equal volume of acetonitrile, centrifuged to remove precipitated proteins and conversion assessed by UPLC-MS analysis.
(§3) UPLC Data were Obtained as Follows: • Column: Acquity UPLC BEH Shield RP18 1.7 μm 2.1 mm i.d. 50 mm length • Solvents: H2O, B: Acetonitrile, both with 0.1% Formic acid • Flow rate: 1.0 ml/min • Detector: Waters Acquity UPLC PDA (UV-Vis detection) and Waters Acquity UPLC QDA (MS)
(§4) Representative results for the % conversions of various substrates to products by enzymes with mutations at position T109 or L198 and double mutants at T109 and 1129/L198 are shown in Table 4 below.

A short description of data set [2]: Oxidase activity testing against sclareol. Particulars: substrate Sclareol; Batch 1; UPLC-MS UV or MS peak areas. The protocol:
as §1, §2, §3, §4

The nature of data set [3]: Oxidase activity testing against tofacitinib. Conditions: substrate Tofacitinib; Batch 1. As to the method: as §1, §2, §3, §4
Data set [4] is described as follows: Oxidase activity testing against valsartan. Conditions: substrate Valsartan; Batch 1. The protocol:
as §1, §2, §3, §4

Data set [5] can be described thus: Oxidase activity testing against perindopril. Conditions: substrate Perindopril; Batch 1. As to the method: as §1, §2, §3, §4
Data set [6] in a line: Oxidase activity testing against ruxolitinib. Conditions: substrate Ruxolitinib; Batch 1. As to the method: as §1, §2, §3, §4
The nature of data set [7]: Oxidase activity testing against propanalol. Conditions: substrate Propanalol; Batch 1. As to the method:
as §1, §2, §3, §4

Data set [8] is described as follows: Oxidase activity testing against efavirenz. Particulars: substrate Efavirenz; Batch 1. The protocol:
as §1, §2, §3, §4

Data set [9] can be described thus: Oxidase activity testing against ebastine. Particulars: substrate Ebastine; Batch 1. As to the method: as §1, §2, §3, §4
Data set [10] can be described thus: Oxidase activity testing against clarithromycin. Conditions: substrate Clarithromycin; Batch 1. As to the method: as §1, §2, §3, §4
Data set [11] can be described thus: Oxidase activity testing, lyophilised recombinant P450/ferredoxin SeuF08/ferredoxin reductase SCF15A against ambroxide. Particulars: for +16 Da (1.50 min) 253 m/z / +16 Da (1.60 min) 253 m/z / +16 Da (2.04 min) 253 m/z: oxidised ambroxide product; for +16 Da (1.50 min) 253 m/z / +16 Da (1.60 min) 253 m/z / +16 Da (2.04 min) 253 m/z / Ambroxide (2.22 min) 237 m/z: relative MS peak area; for Ambroxide (2.22 min) 237 m/z: remaining substrate, 0.1 mg/ml ambroxide, 27° C., 16-20 hours; for Average % conversion: substrate ambroxide, relative MS peak areas. The protocol: as §1, §2, §3
To confirm the identities of reaction products where known, their chromatographic retention time, mass and ultraviolet spectra were compared with those of authentic metabolite standards.
Representative results for the % conversions of ambroxide to oxidised (+16 Da) products for single point mutants at position T109 are shown in Table 2 below.

The nature of data set [12]: Oxidase activity testing against buparvaquone. Particulars: substrate Buparvaquone; Batch 1. The protocol: as §1, §2, §3, §4
The nature of data set [13]: Oxidase activity testing against BIRB796. Particulars: substrate BIRB796; Batch 1. The protocol: as §1, §2, §3, §4
A short description of data set [14]: Oxidase activity testing against 7-ethoxycoumarin. Conditions: substrate 7-ethoxycoumarin; Batch 1. The protocol:
as §1, §2, §3, §4

The nature of data set [15]: Oxidase activity testing against celecoxib. Conditions: substrate Celecoxib; Batch 1. The protocol: as §1, §2, §3, §4
Data set [16] in a line: Oxidase activity testing against tolbutamide. Particulars: for Average % conversion: substrate Tolbutamide, Batch 1. The protocol:
as §1, §2, §3, §4

Data set [17] in a line: Oxidase activity testing against solifenacin. Particulars: substrate Solifenacin; Batch 1. As to the method: as §1, §2, §3, §4

B1: SeuC10M25: P450SeuC10 with T109F mutation, SEQ ID NO: 54 (protein)
chain: MKIGTTHLTRLRGLSMTELTDITGPAAQAETVAFPQDRTCPYHPPTGYDPLRDGRPLSRVTLYDGREVWLVTAQATARALLADPRLSTDRRRDGFPVPTPRFAAGRDRFLALLGLDDPEHHRQRRLLIPSFTLKRATAQRPWIQRIVDELLDAMIARGPVADLVSAFALPVPSMVICELLGVPYADHEFFEEQSRRLLRGPTGADTTDARDRLEAYLGDLIDAKAKEAEPGDGILDDLVHNRLRAGELDRSVLVSLAVILLVAGHETTANMISLGTYTLLQHPERLAELRADPSLLPAVVEELLRMLSIAEGLQRLALEDIEIDGITIRAGEGVLFSTSVINRDTAVYEDPDDLDFHRADRHHVAFGFGIHQCLGQNLARAELEIALGSLFTRLPGLRLAAPAEEIPFKPGDTVQGMLELPVTW
modifications: SeuC10M25
B1: the Average % conversion turned out to be 58% in [1]; 55.7% in data set [2]; 21.4% in [3]; 15.5% in data set [4]; 23.5% in data set [5]; 79.8% in [6]. The Average % conversion was 0% in data set [7]; 1.5% in [8]; 12.7% in data set [9]; 0% in [10]; 81.1% in data set [11]; 19.4% in data set [12]. The Average % conversion in data set [13] is 13.9%; in data set [14], 17.5%; in data set [15], 10.4%; in [16] it was 28.2%; in data set [17], 2.9%. Also, the “+16 Da (1.50 min) 253 m/z” value in [11] was determined as 52.0%. Besides, in data set [11], the “+16 Da (1.60 min) 253 m/z” value is 15.2%. Besides, the “+16 Da (2.04 min) 253 m/z” value in [11] worked out at 13.9%. Also, the “reaction products from ambroxide (in words)” value in data set [11] (products at 1.50, 1.61 and 2.04 minutes) was “highest yields of the products at 1.61 and 2.04 minutes”. Further, the “Ambroxide (2.22 min) 237 m/z” value in [11] came to 18.9%.

B2: SeuC10M2: P450SeuC10 with T109A mutation, SEQ ID NO: 8 (protein)
chain: MKIGTTHLTRLRGLSMTELTDITGPAAQAETVAFPQDRTCPYHPPTGYDPLRDGRPLSRVTLYDGREVWLVTAQATARALLADPRLSTDRRRDGFPVPTPRFAAGRDRALALLGLDDPEHHRQRRLLIPSFTLKRATAQRPWIQRIVDELLDAMIARGPVADLVSAFALPVPSMVICELLGVPYADHEFFEEQSRRLLRGPTGADTTDARDRLEAYLGDLIDAKAKEAEPGDGILDDLVHNRLRAGELDRSVLVSLAVILLVAGHETTANMISLGTYTLLQHPERLAELRADPSLLPAVVEELLRMLSIAEGLQRLALEDIEIDGITIRAGEGVLFSTSVINRDTAVYEDPDDLDFHRADRHHVAFGFGIHQCLGQNLARAELEIALGSLFTRLPGLRLAAPAEEIPFKPGDTVQGMLELPVTW
modifications: SeuC10M2
As for B2, the Average % conversion in [1] came to 87.2%; in [2] it was 36.5%; in data set [3], 47.1%; in data set [4], 17.6%; in data set [5], 30.7%; in data set [6], 92.8%. Further, the Average % conversion in data set [7] came to 0%; in [8], 0.9%; in [9], 6.8%; in [10], 0%; in data set [11] it was 93.2%; in data set [12], 28.7%. Moreover, the Average % conversion turned out to be 29.5% in [13]; 32.4% in data set [14]; 24.7% in data set [15]; 52.3% in [16]; 7.2% in data set [17]. Besides, the “+16 Da (1.50 min) 253 m/z” value in data set [11] stood at 85.1%. Besides, the “+16 Da (1.60 min) 253 m/z” value in [11] is reported as 7.0%. Besides, the “+16 Da (2.04 min) 253 m/z” value in data set [11] is 0.0%. In addition, in data set [11], the “Ambroxide (2.22 min) 237 m/z” value was 6.8%. Further, the “conversion of tolbutamide compared to wild-type (in words)” value in data set [16] is reported as “significantly increased conversion”.
